Measurements reported in article PMC10743851.

Molecular target: actin (of the actin-chitin affinity column)
Test: sequential dual-affinity chromatography; DBP of donor eluted from the 25-OH-D3/Sepharose column, loaded on the Actin/chitin column

Substance: vitamin D3-binding protein (DBP) of donor (from UniProt P02774 17-474) (natural protein)
- percent bound: < 10%
